Source: the domain aggregation screens of Martell et al. (2025)

Assay: soluble fraction after stress (log2 fold change); higher = more stays soluble; pooled small domains, quantitative proteomics
Settings: stress: pH 4
Summary of the method: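 Custom libraries of small protein domains were pooled and exposed to pH 4. High-throughput quantitative proteomics then measured the log2 fold change in the amount of each domain still soluble, with higher values meaning more stayed soluble. This soluble-fraction fold change stands for aggregation propensity.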

Sequence	soluble fraction (log2)
HMGTPEQSAQFEQVLEELKNVPGPVMKAMQRAQDIYGYLPIEIQSRIGQAFGVSLEEVYGIATFYSQFNL	-2.6
HMTFTQFAESHGVIIKSLKASDKIQRGPTVAHPKSDNGAWLWDGNRGGVMAWDGDGQWYWFK	-0.108
HMRDLLPHFQRELQFLQTHRNEFAAAYPELGGRLATASDLLDDPHVERMVQSFALLAARVHKRLDDDF	-0.143
HMLNNVDIHKLSEDLLLYKIKIDIKLKNIEDAISTIDYFSNKFPNSDLMPYVIYEKKLIDNI	-0.741
HMGISGSDLEKMIRNILVNNTDVVETIKSGQDKKGKKQKFLQGLIMKEARGQTDPREAASLLAKLLE	0.202
HMVSLNKTEFIAVKKASASELRDKINSLGLDVLKDATISADARTNQIIATGPKYALEQIKMLVVGLDVSS	0.313
HMEPLPDIPRGTRVSHQTAPADGDMPERRETGWTMTEPIRAQDGLAYVGVSVYGRGVVMLPVNSLSII	-0.557
HMAWAVDVGVVGLFPGKAVLVIDGGAPRTVPVGANVGGVRLLAVDQGSATVEIGGKRQRLAIGQHAH	0.22
HMSFRYLHVKRQLMSLIGTMNAHERLPSRTDLSETFQVARTTIERAISELIGEGWLYARDGSGTYVAER	-0.919
HMIRVGRPQYKRGEFVSFDFDNGRKKTEMYGRVDVIDSYGTFGQGREVSYDIRASDGILYKHIPESSVYGF	0.28
HMGEWNSVFSVPSSVVDKHLKTASSVYVKVLLVILRNAGNRISDQQISEQLSVPVDEVQEAIRYWNAAGIF	-0.816
HMGVIDTLSGPQKAAAILVAIGRPSASRLLKHFNAEDLRKLAGHARTLEPISPLDFEHLVKQFEDSFAEG	-0.745
HMNKKAAYKDMAGYFAEMKSKDAADILSRLKDEDIIGIFNEMPRDMVAEMLQKMDRDKATTLTRKML	0.235
HMTAFAGLTPRERDLLELIAQGRDNAQIAATLGVSDKTVRNHITHIFAKLEVETRAQAIVLARNAGFGRA	-0.0568
HMQLPTPEDLKKRRNELGLTQSDLAKRAGVSQPLIARIESGDVDPRLSTVRKILDAFEEVEKEQQ	0.0627
HMPASVSAIRKYLGGGSFKGVGPALAKRIVDAFGEYTIETIENDPKQLAKVKGVSEKMALEINTQ	0.112
HMPSLSPDETVVVDALRQQNDMQINMISVKTNLPIARLSAILFEMELKGVLKPLAGGVYHLL	-0.0639
HMQAESLTVVRSAELKADRFLDAATLQTLQTGQVVESLRTESGWVQVRIAGQQGWVRAMNVKGA	-0.569
HMVLRPDDVEDSLWREWVSHRKAKRAAVTEGVLKTFRQEATKASFTLADAMRKSIDRGWTGFEAEWVARET	-0.325
HMTKLLITNYERNVLINSYLLKNTPELDDIRRLLVHNKHISENDVSTEMARRIKKHKADWLRVT	0.00962
HMNSVYTPDPKELAKAIKIVTAAREAEQKGQGVIAVDGRMVDAPVVSQALRILELARLAGMEVSE	0.22
HMSSPPNPQLAKRYISYSVDDIARLFGIHRHTVREWIKRGLPVIDQQRPLLVQGADLAEFLRKRRA	0.162
HMNLLGDNIRKLRLEKGLGLNEVARLANITGGYLSSIENNKRTNVGTEILESIAKAIGVSVSDFYL	-0.0496
HMRQMIIIMQKQAAASSVAAVVEFIRSKGLREHISPGAERTIIGAVGDERVFLPQELESLPQVERAIRVL	-0.85
HMRFMRVSQSKSKNSTSLYIIESVYTKDNKHTTRIVKKLGTVEELSKEHEDPLAWAKEVAKQMTEEAEQN	-0.508

Sequence	soluble fraction (log2)
HMTASVTDAMFELIDELPKLGKTSFRQLTADLVDRLQVVVTFLAVLELYKQGHVELDQSERFGDITVVWTG	-1.11
HMDELNFGNFEGTRIFVQRTARKKSIALSIRDGTIVILAPRHIPNQEIQELITTNTDWIRAKLSQHAETKR	-0.264
HMHTGLTNYEYKQIKSSLLKILTQSESMRLGELVDKVDQFESEKVTTVIRFLVGNEELMLFDDTLTLKKQL	-0.232
HMTLTLEQAAAIKNSEGEQYGKIESERLAAMSVQIDKAIKSNGHDPNKKADLERKLDAIGIILNARAAG	-0.0482
HMNPFPDNTAEVLSQFKNIIVPELNTGQLSKLLRARYLVDTVGINKVEGLPFTAQELEEKIESLINSF	-0.705
HMEHQLLHMEKTIFEEIADDYPQLNHTKIRNVLAAFLFTNDDVFKRIADLSGGERGRVSLAKLMLSDA	-0.816
HMYQPLRDVIFETLRKAIVSGDIKPGERLMEVSLANQMGVSRTPVREAIRRLEAEGLVTMTPRKGTHVAE	-0.215
HMDIDASEVRGIISQYINEPDGRVSYILETIQKKYRYLPEEAIRIVAQELEVPLTQLFGVATFYAAFSL	0.0192
HMSSLREQVADALRAHLVSGRMRPGVLYSAPKLAAEFGVSATPVREAMLDLVSEGLVDVVRNKGFRVT	0.018
HMASALDFGRYVRSQYSLQEFPLILIAPLNDPHPKEVVRELFNLYLTKPITRSRLFDSLMTVLG	-0.499
HMNKITIDQAKEIALNHAKLTAEQVSFIRTESEFDDGIEKYNIEFYYNNQKYDYDINAVNGQIIQYDLEG	-0.23
HMQDVKRYLVNSNQLNVRTGPGKEFEISESLNKGDAVTLLHKESNGWWEVITSTGQGYVYSSMLTKDPW	0.0322
HMGPDALSIGRRVRQVRTARGMTLDELAAAVSRAPSQLSMIETGKREPKLSLLQAIARALGTTIDALLT	0.126
HMPTYEEAKTYLKAAFEHIVAAGRDVGELVEFAFAKSGDAVAPYLRRFLSDVHEGRITIQGLTESAKLAV	-0.463
HMSQLDITEARIVVSGGLGMQGPENFKLLEELAKVLGGAVGASRPVVDNGWREYSNQVGQTGKIVAPELYV	-0.751
HMDVKQSAAGVAGRIRFELNRTLTGQGHEKFTSASQAIGPRPAAELARRLFNSGSVVGVHVFANIVTVDLL	0.088
HMVEVVDAEKLEERLSKVFSAAVLLEIYNENPAHGKEYAYLFTARKNAVEEMIENGQMKRETWEAK	-1.91
HMITTEEVLNRIRKKVDHPATIRELQKALSIADDDRHRFRRRIRTLVASGALVRIRGNRYGLPSK	0.0429
HMDRELVALVQKALSQLSEQQRRIVELHVMEGMKYLEIADLLQLSENTVRTHLKRAYKILRENH	-0.921
HMKVNIGDQVYNQMKDQIMSGVWVPGEKIPSENQLMEVFGVSRGTVRQAIQKLSAVGLLETRRGEGSYVGQ	-0.0128
HMATTTEPTSPPAATASLEAKINWLFLIFRNKKTVTASEQKFHAEDASTVVGKETLTDDGTTMTKGETAAG	-0.437
HMNNDIDRVFAELTVLSQKKGYLVFDDIEKGTEDLSVNEVDWLTNRLLTSGVEIFDDVPDTIK	-1.81
HMSTMNRLPRHEQILKLVRANGFMPIEELARLLDVTPQTIRRDINTLSEENLLRRFHGGAALGPSVE	0.255
HMDQPVIDVREFGARGDGKQDDAPAIQAAVRLAEQLGGGRVVVPATREFYLLGSTIRIRGHHVTLTGPGAR	0.0605
HMQLTDLSALEAIIKEVLAANPKSVEDYKSGKEKAFGSLVGQAMKATKGKANPETVNSLLRKNLN	-0.0162

Sequence	soluble fraction (log2)
HMNLVGGKINSLMTTKNVTIQDLSERSGLTVSQIELLLSGDKVPSLAVLIKIARGLGVRVGTFL	-0.156
HMDVYKRQKLRNFIESLFEDAPKNKQTIELKEEMLQNLIDKYNDLVDSGKSSEAAYNIATAS	-0.0341
HMDNLSQMQERILEFIIRSKDQSGYTPSLREIGDEVGLKAVSSVKYQLEQLKDAHYISFDANTARAIRVLI	-0.438
HMTRLSSREAQVISLVRDGMTNQQIAERLELSPLTIKNHVQNILRKLDVSNRAQAVAKAVKARLI	0.00472
HMRSLAVGNVVSEEGKPSYLLLDSKRTMLFSENSIPSLYLEDGRRVIVNYTLLDEDYQGYDFRIHVNDIDT	0.22
HMYKNAFITYDNNLYYLGSDSKMAIGWQSIGGNTYYFRNWGGMITGKQVIDGKTYVFDEDGKLVQSPD	-0.807
HMSETTSRVLQLLGLLQARRVWTGQELADRLGVTGRSVRRDIERLRDLGYPVHASKGRDGGYQLGA	-0.222
HMSKPVVWIVGDSTVSAFTDNYYYPRYGWGTQIDKYLDGTFEVKNIALSGRSSTSYTADKEYGELIAG	0.0502
HMLAERKERDKAELKELILDAAKKILLKNGQEGLSIRKIATTVEYSPATIYLYFKDKDEILHELMEMG	0.151
HMINFKVKNVQDVGSRLDKFLVTNIPEFSRSKIQKHIKNGKVMVNGLLKKTGYKLEINDEINILNN	0.198
HMGDGRVGVITASIAYEYAKEVFPEGTSFLKLGLTFPLPMDLIRDFASKVEKLYVIEELEPL	-1.72
HMARDDVIRLVQLSLDHLPAKYADALEWKYVEGLSTKEIAARLELGSEAAESLLARARRAFKNDFQEIFES	-0.47
HMKTTVEVSPIARPGAVASGSVKFGSGVTAEWMLDQYGRLGLDKPTGKPTEQDIKEFQIELQKAL	0.122
HMAEKVIVVADSITVGELAEKLNLPVTNLIGELFKNGIVSTINQRIDFETASIIVEELGLDVELERK	-0.96
HMPNYVEMLRLHEAGFSLRQIAKLVSSGRNTVTRTVNIAQEKELSYEEIAQWSSEELENMFKPD	-0.515
HMSMANKKDFILDTAQKLFMEQGFDQTSISQILEATQIARGTLYYYFSSKEEIMDAIIERTIEQ	-1.81
HMYHADLIGLRVETAAGEKLGTVKAVHNFGAGDVIEITGAEDKDGLMVPFTAEVVPEVDIENGRIVVS	-0.868
HMEKRRQEIVELVKRESEISFAELKQHFPEVSEVTLRKDLKYLDSTLQIIRIHGGAKSLPAAI	-0.582
HMNEKLRNYIDTLFEHAPTTVRAVELKEEMFQNLTDKYNDLIAQGKSEEAAFNIAVASIGDVDSLIAGLS	-0.459
HMTIKTAFPAEDLAKPDNFKSLLYYFGLLTIRGTKWGSTLLAIPNLTVREQLYSYLVEAYRSADL	0.244
HMTNEAFITPSVLEWAIKRAGVSAESIHKKAEQWVSGKARPTFKQAVDIAKTLQIPFGYLWLKEPPKEQ	-0.442
HMGRYATVPDVVGSTPEVARELIRSEGLRYVLSEETVYSDSDTGTVGRTDPESGTRMSADDEVVVYLS	-1.27
HMLLFNVADIVKRAKRVLNFKTDAELAAYLGVSRPTLSNWIARNGIDFPLLLEKLKEIDYNWLLVGKGKPE	-0.114
HMRESLSEAERHPRYLEGEDVVRMFLLMGDLSRVEAEVIALQWNAQEADRVGLPQDAKVFRTRAR	-0.417
HMEEDGAPLESREVLLDQAISQGKGTQWTIATETKLEDHIVSGAYSTDGKVTLAVFSPLGDGKYEFSSSVN	-0.172
